We go through 1 molecule from patent US20040091453, “Pancreatic langerhans beta cell proliferation promoter and apoptosis inhibitor, and screening of candidate compounds for the e drugs” (published 2004).

The data set has as its target PARP (poly(ADP-ribose) polymerase), purified (Homo sapiens, UniProt P09874 P09874:2-1014). Put plainly: EMSA; 10 ng PARP; retarded band at position different from nuclear extract complex; room temperature, 2 mM MgCl2, 50 mM NaCl. To be noted: tags: Trevigen Inc; label: 32P. The method, then:
Biophys. Acta, 1219, 241-243) and stored at −80° C. until use. GMSA was performed by the method of Garabedian (Garabedian, M. J. et al. Analysis of protein—DNA interactions in Gene Transcription: A practical approach (Hamesm, B. D., and Higgins, S. J. eds.), pp. 243-293, IRL Press, Oxford (1993)). The nuclear extract (10 μg) was incubated in a final volume of 20 μl of buffer containing 20 mM Tris-HCl (pH 7.9), 2 mM MgCl₂, 50 mM NaCl, 2 mM EDTA, 10% glycerol, 0.1% Nonidet P-40, 1 mM DTT, 50 μg/ml bovine serum albumin and 1 μg of poly(dI-dC). After incubation for 10 min at room temperature, 2.5 pmol of double-stranded DNA, previously labeled by an exchange reaction using MEGALABEL™ (Takara Shuzo) and [γ-³²P]ATP (Amersham Pharmacia Biotech), were added and incubated for 30 min at room temperature, then the binding reactions were resolved on pre-run 6% acrylamide gel. When competition experiments were conducted in the presence of 100-fold molar excess of cold probe, an unlabeled competitor was added with the labeled probe. In the supershift assay, 2 μg of anti-Sp1, -Sp2, -Sp3 or -Sp4 antibody (Santa Cruz) were added prior to the addition of the ³²P-probe. […] DNA was detected by immunoblot using an ECL 3′-oligolabelling and detection system (Amersham Pharmacia Biotech). […]

PARP (poly(ADP-ribose) polymerase), purified, sequence (P09874 2-1014, one chain of several): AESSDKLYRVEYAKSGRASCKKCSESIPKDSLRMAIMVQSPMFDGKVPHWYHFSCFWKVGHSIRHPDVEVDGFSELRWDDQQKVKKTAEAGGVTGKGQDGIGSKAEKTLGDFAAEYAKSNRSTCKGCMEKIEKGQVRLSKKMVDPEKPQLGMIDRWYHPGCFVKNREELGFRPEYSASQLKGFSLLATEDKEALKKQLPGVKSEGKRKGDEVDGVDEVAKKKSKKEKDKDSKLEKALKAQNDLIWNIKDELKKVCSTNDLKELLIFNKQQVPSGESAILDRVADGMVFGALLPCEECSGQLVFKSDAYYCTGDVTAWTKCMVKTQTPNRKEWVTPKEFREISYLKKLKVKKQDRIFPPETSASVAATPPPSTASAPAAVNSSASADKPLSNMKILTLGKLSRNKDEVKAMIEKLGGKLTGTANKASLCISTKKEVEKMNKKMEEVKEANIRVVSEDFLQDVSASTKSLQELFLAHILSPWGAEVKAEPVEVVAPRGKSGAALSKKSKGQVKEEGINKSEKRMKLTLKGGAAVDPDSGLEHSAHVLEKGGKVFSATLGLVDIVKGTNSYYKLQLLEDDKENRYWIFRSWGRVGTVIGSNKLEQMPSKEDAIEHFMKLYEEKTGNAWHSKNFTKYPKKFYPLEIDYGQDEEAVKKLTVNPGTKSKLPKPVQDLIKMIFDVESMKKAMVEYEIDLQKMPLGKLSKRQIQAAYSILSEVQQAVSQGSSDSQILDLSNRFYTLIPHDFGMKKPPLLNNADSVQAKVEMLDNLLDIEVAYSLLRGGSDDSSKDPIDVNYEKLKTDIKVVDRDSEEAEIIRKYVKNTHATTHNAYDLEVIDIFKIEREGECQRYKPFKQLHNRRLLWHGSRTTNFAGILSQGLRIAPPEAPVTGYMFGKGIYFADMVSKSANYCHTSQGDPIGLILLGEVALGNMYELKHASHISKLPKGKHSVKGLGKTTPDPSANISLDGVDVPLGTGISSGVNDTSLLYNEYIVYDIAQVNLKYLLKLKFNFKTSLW

B1: Probe 1 (rat Reg -86 to -65) (dsDNA)
DNA 1: TTCCTTGCCCCTCCCATTTTTC
DNA 2: GAAAAATGGGAGGGGCAAGGAA
For the molecule B1, the binding result is listed as “binds”.
